Target: His-Tagged rhFc(gamma) receptor I (recombinant human Fc(gamma)R-I; Acro Biosystems, catalog# FCA-H52H1) (human)
Experiment: ELISA, control IgG coated, His-tagged rhFc(gamma)RI in solution, anti-His-HRP

His-Tagged rhFc(gamma) receptor I (recombinant human Fc(gamma)R-I; Acro Biosystems, catalog# FCA-H52H1) (human), sequence (P12314 16-292): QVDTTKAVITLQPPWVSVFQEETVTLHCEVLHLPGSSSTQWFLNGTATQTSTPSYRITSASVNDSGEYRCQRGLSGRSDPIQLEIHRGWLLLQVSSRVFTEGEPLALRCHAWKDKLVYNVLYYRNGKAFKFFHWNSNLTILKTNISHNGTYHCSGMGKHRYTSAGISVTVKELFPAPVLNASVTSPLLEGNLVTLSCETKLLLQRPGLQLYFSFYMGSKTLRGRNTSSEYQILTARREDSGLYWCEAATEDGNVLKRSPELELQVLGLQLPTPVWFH

With “Dog IgG, Control Rockland-Inc, Cat# 004-0102-005 (antibody)” the OD450 at 222 ng/ml Fc(gamma) RI was 0.686 OD450.
